Measured values: patent US20260109962

Biological target: T1, 33-mer peptide from alpha-gliadin
T1 chain: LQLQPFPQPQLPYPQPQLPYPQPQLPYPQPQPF

B1: Recombinant E40 (histidine-tagged endopeptidase 40 of Actinoallomurus A8, mature form, produced in S. lividans TK24/pIJ86/e40) (protein)
chain: AAPSGLSPANLQSAYKLPSSTAGSGQTVAIVDAYDAPTAEADLNVYRSQFGLGACTTANGCFKKVDQNGGTSYPRKDGGWAQEISLDLDMVSAVCPNCKIVLVEAKTNSFANLGTAENTAASLANVISNSYGGSDASDASYGSYYNHPGKAITVSSGDAGYGVEYPASSHYVTAVGGTSLRTASTSRGWSETAWSGAGSGCSAYNTALSGQSGLTGCSRRAVADVSAVADPATGVAVYDSTAYQGQSGWMVFGGTSVAAPIIGGVYGLAANAASIDNNYPYAHTSSLFDVTSGSNGTCTTTKWCTAGTGWDGPTGLGTPNGTGAFGHHHHHH
33-mer gliadin peptide degradation monitored by LC-MS/MS (1:48 enzyme vs substrate molar ratio, pH 5, 37 C): time to complete disappearance of the peptide: the native 33-mer peptide signal completely disappeared after only 15 minutes
33-mer gliadin peptide degradation monitored by LC-MS/MS (1:96 molar ratio): time to complete degradation: in that case complete 33-mer degradation took 30 minutes (not shown)
cleavage sites from MS/MS spectra of the digestion products: E40 cleaving site occurs between F-P and Q-L residues of gliadin, leading to short peptides lacking of T-cell stimulatory capacity
